Assay results published in patent US8206955B2, “Production of monatin and monatin precursors” (Cargill, Incorporated, priority 2003, dated 2012).
Residue numbers refer to the chain shown, from its start.

B1: L. amylovorus araT: Lactobacillus amylovorus aromatic aminotransferase (araT, SEQ ID NOS: 11 and 12), novel (protein, listed as Lactobacillus amylovorus)
chain: MPELANDLGLSKKITDVKASGIRIFDNKVSAIPGIIKLTLGEPDMNTPEHVKQAAIKNIADNDSHYAPQKGKLELRKAISKYLKKITGIEYDPETEIVVTVGATEAINATLFAITNPGDKVAIPTPVFSLYWPVATLADADYVLMNTAEDGFKLTPKKLEETIKENPTIKAVILNYPTNPTGVEYSEDEIKALAKVIKDNHLYVITDEIYSTLTYGVKHFSIASLIPERAIYISGLSKSHAMTGYRLGYVAGPAKIMAEIGKVHGLMVTTTTDSSQAAAIEALEHGLDDPEKYREVYEKRRDYVLKELAEIEMQAVKPEGAFYIFAKIPAKYGKDDMKFALDLAFKEKVGITPGSAFGPGGEGHIRLSYASSDENLHEAMKRMKKVLQEDE
B2: R. sphaeroides 35053 msa: R. sphaeroides 35053 multiple substrate aminotransferase (SEQ ID NOS: 13 and 14) (protein)
chain: MREPLALEIDPGHGGPLFLAIAEAITLDITRGRLRPGARLPGTRALARALGVHRNTVDAAYQELLTQGWLQAEPARGTFVAQDLPQGMLVHRPAPAPVEPVAMRAGLAFSDGAPDPELVPDKALARAFRRALLSPAFRAGADYGDARGTSSLREALAAYLASDRGVVADPARLLIARGSQMALFLVARAALAPGEAIAVEEPGYPLAWEAFRAAGAEVRGVPVDGGGLRIDALEAALARDPRIRAVYVTPHHQYPTTVTMGAARRLQLLELAERHRLALIEDDYDHEYRFEGRPVLPLAARAPEGLPLIYVGSLSKLLSPGIRLGYALAPERLLTRMAAARAAIDRQGDAPLEAALAELIRDGDLGRHARKARRVYRARRDLLAERLTAQLAGRAAFDLPAGGLALWLRCAGVSAETWAEAAGQAGLALLPGTRFALESPAPQAFRLGYAALDEGQIARAVEILARSFPG
modifications: R. sphaeroides
B3: R. sphaeroides 2.4.1 tatA: Rhodobacter sphaeroides strain 2.4.1 tyrosine aminotransferase (SEQ ID NOS: 3 and 4) (protein)
chain: MRSTTAPGPSGACMTISRSRKDDEGMLTALKPQPADKILQLIQMFREDARADKIDLGVGVYKDPTGLTPVMRAVKAAEKRLWEVETTKTYTGLADEPAYNAAMAKLILAGAVPADRVASVATPGGTGAVRQALELIRMASPEATVWISNPTWPNHLSIVKYLGIPMREYRYFDAETGAVDAEGMMEDLAQVKAGDVVLLHGCCHNPTGANPNPVQWLAICESLARTGAVPLIDLAYQGFGDGLEMDAAATRLLATRLPEVLIAASCSKNFGIYRERTGILIAIGEAAGRGTVQANLNFLNRQNYSFPPDHGARLVTMILEDETLSADWKAELEEVRLNMLTLRRQLADALQAETGSNRFGFVAEHRGMFSRLGITPAEVERLRTEHGVYMVGDSRLNIAGLNRTTVPVLARAVAKVLRG
modifications: Rhodobacter sphaeroides
B4: R. sphaeroides 35053 tatA: R. sphaeroides 35053 tyrosine aminotransferase (SEQ ID NOS: 5 and 6) (protein)
chain: B3 chain with D95G, M184L, I219V
modifications: Rhodobacter sphaeroides
B5: B. subtilis araT: Bacillus subtilis aromatic aminotransferase (araT, SEQ ID NOS: 9 and 10) (protein, listed as Bacillus subtilis)
chain: MEHLLNPKAREIEISGIRKFSNLVAQHEDVISLTIGQPDFFTPHHVKAAAKKAIDENVTSYTPNAGYLELRQAVQLYMKKKADFNYDAESEIIITTGASQAIDAAFRTILSPGDEVIMPGPIYPGYEPIINLCGAKPVIVDTTSHGFKLTARLIEDALTPNTKCVVLPYPSNPTGVTLSEEELKSIAALLKGRNVFVLSDEIYSELTYDRPHYSIATYLRDQTIVINGLSKSHSMTGWRIGFLFAPKDIAKHILKVHQYNVSCASSISQKAALEAVTNGFDDALIMREQYKKRLDYVYDRLVSMGLDVVKPSGAFYIFPSIKSFGMTSFDFSMALLEDAGVALVPGSSFSTYGEGYVRLSFACSMDTLREGLDRLELFVLKKREAMQTINNGV
B6: Porcine type II-A: Glutamic-oxaloacetic transaminase from pig heart (type IIa), Sigma G7005 (protein, UniProt P00503 2-413, looked up)
Aspartate aminotransferase, …: APPSVFAEVPQAQPVLVFKLIADFREDPDPRKVNLGVGAYRTDDCQPWVLPVVRKVEQRIANDSSLNHEYLPILGLAEFRTCASRLALGDDSPALQEKRVGGVQSLGGTGALRIGAEFLARWYNGTNNKDTPVYVSSPTWENHNGVFTTAGFKDIRSYRYWDTEKRGLDLQGFLSDLENAPEFSIFVLHACAHNPTGTDPTPEQWKQIASVMKRRFLFPFFDSAYQGFASGNLEKDAWAIRYFVSEGFELFCAQSFSKNFGLYNERVGNLTVVAKEPDSILRVLSQMEKIVRVTWSNPPAQGARIVARTLSDPELFHEWTGNVKTMADRILSMRSELRARLEALKTPGTWNHITDQIGMFSFTGLNPKQVEYLINEKHIYLLPSGRINMCGLTTKNLDYVATSIHEAVTKIQ
B7: Porcine type I: commercial porcine glutamate-oxaloacetate aminotransferase, Sigma G2751 (protein, UniProt P00503 2-413, looked up)
Aspartate aminotransferase, …: B6 Aspartate aminotransferase, …
B8: E. coli aspC: Escherichia coli aspartate aminotransferase (aspC) (protein, UniProt P00509 1-396, looked up)
Aspartate aminotransferase: MFENITAAPADPILGLADLFRADERPGKINLGIGVYKDETGKTPVLTSVKKAEQYLLENETTKNYLGIDGIPEFGRCTQELLFGKGSALINDKRARTAQTPGGTGALRVAADFLAKNTSVKRVWVSNPSWPNHKSVFNSAGLEVREYAYYDAENHTLDFDALINSLNEAQAGDVVLFHGCCHNPTGIDPTLEQWQTLAQLSVEKGWLPLFDFAYQGFARGLEEDAEGLRAFAAMHKELIVASSYSKNFGLYNERVGACTLVAADSETVDRAFSQMKAAIRANYSNPPAHGASVVATILSNDALRAIWEQELTDMRQRIQRMRQLFVNTLQEKGANRDFSFIIKQNGMFSFSGLTKEQVLRLREEFGVYAVASGRVNVAGMTPDNMAPLCEAIVAVL
B9: E. coli tyrB: E. coli tyrosine aminotransferase (tyrB, SEQ ID NOS: 31 and 32) (protein)
chain: VFQKVDAYAGDPILTLMERFKEDPRSDKVNLSIGLYYNEDGIIPQLQAVAEAEARLNAQPHGASLYLPMEGLNCYRHAIAPLLFGADHPVLKQQRVATIQTLGGSGALKVGADFLKRYFPESGVWVSDPTWENRVAIFAGAGFEVSTYPWYDEATNGVRFNDLLATLKTLPARSIVLLHPCCHNPTGADLTNDQWDAVIEILKARELIPFLDIAYQGFGAGMEEDAYAIRAIASAGLPALVSNSFSKIFSLYGERVGGLSVMCEDAEAAGRVLGQLKATVRRNYSSPPNFGAQVVAAVLNDEALKASWLAEVEEMRTRILAMRQELVKVLSTEMPERNFDYLLNQRGMFSYTGLSAAQVDRLREEFGVYLIASGRMCVAGLNTANVQRVAKAFAAVM
modifications: E. coli

Experiment: tryptophan aminotransferase activity, production of indole-pyruvic acid
Format: biochemical
Settings: cell extracts (CE); 5 mM L-tryptophan, 30 minutes at 30° C.
Description: Cell extracts were analyzed by SDS-PAGE, and assayed for tryptophan aminotransferase activity by following production of indole-pyruvic acid using the following protocol. One mL reactions were carried out in 50 mM sodium tetraborate (pH 8.5), 0.5 mM EDTA, 0.5 mM sodium arsenate, 50 μM pyridoxal phosphate, 5 mM α-ketoglutarate, and 5 mM L-tryptophan. The reactions were initiated by the addition of cell free extracts or purified enzyme and were incubated 30 minutes at 30° C. 20% TCA (200 μL) was added to stop the reaction, and the precipitated protein was removed by centrifugation. The absorbance at 327 nm was measured and compared to a standard curve of freshly prepared indole-3-pyruvate in the assay buffer. Control reactions without the substrate tryptophan or using cell-free extracts from clones transformed with pET30a alone were also performed.
Due to background from the native E. coli aminotransferases in cell extracts, the recombinant fusion proteins each containing an aminotransferase protein fused to the pET30 amino terminal HIS6-Tag/S-Tag (6×HIS tag disclosed as SEQ ID NO: 90) were purified using immobilized metal affinity chromatography with His-Bind cartridges following manufacturer's protocols (Novagen, Madison, Wis.). The HIS6-Tag sequence (SEQ ID NO: 90) of the fusion proteins binds to the divalent Ni^2+ cations immobilized on IDA-based His-Bind resin. The eluent fractions were desalted on PD-10 (Amersham Biosciences, Piscataway, N.J.) columns and eluted in 50 mM Tris, pH 7.0. Purified proteins were analyzed by SDS-PAGE and assayed for aminotransferase activity.
Table 1 lists the specific activities measured in micrograms of indole-3-pyruvate (I3P) formed per milligram protein per minute. […] In these cases a ‘>’ precedes the specific activity number.

With B1 as the molecule, how does the “Specific Activity” value read?
Its value is 1.26 μg I3P/mg protein/min.

For B2, which “Specific Activity” value is on record?
The value was 3.97 μg I3P/mg protein/min.

For B3, which “Specific Activity” value is on record?
Its value is greater than 41.2 μg I3P/mg protein/min.

For B4, which “Specific Activity” value is on record?
Its value is greater than 62.3 μg I3P/mg protein/min.

For B5, which “Specific Activity” value is on record?
Its value is 0 μg I3P/mg protein/min.

Same assay, conditions: commercial enzyme (Sigma)

For B6, which “Specific Activity” value is on record?
The value was 1.5 μg I3P/mg protein/min.

For B7, which “Specific Activity” value is on record?
Its value is 1 μg I3P/mg protein/min.

Same assay, conditions: purified (P); 5 mM L-tryptophan, 30 minutes at 30° C.

Which “Specific Activity” value does the source give for B1 here?
Its value is 0 μg I3P/mg protein/min.

Which “Specific Activity” value does the source give for B8 here?
The value was 800 μg I3P/mg protein/min.

With B9 as the molecule, how does the “Specific Activity” value read?
Its value is 1 μg I3P/mg protein/min.

For B2, which “Specific Activity” value is on record?
The value was 0 μg I3P/mg protein/min.

With B3 as the molecule, how does the “Specific Activity” value read?
The value was 1086 μg I3P/mg protein/min.

For B4, which “Specific Activity” value is on record?
The value was greater than 486 μg I3P/mg protein/min.

For B5, which “Specific Activity” value is on record?
The value was 1.5–4.5 μg I3P/mg protein/min.

Same assay, conditions: recombinant clones expressed in E. coli

Which “tryptophan aminotransferase activity (in words)” value does the source give for B8 here?
The value was “significant levels of tryptophan aminotransferase activity”.

With B5 as the molecule, how does the “tryptophan aminotransferase activity (in words)” value read?
The value was “little enzymatic activity”.
